Publication PMC3511050 (FEBS letters, 2012)

Experiments:
SufE (Escherichia coli) = SufE (Escherichia coli) (UniProt P76194); test: SPR; conditions: cited from earlier work
SufE (E. coli), P76194 = biological target: T1, SufE (E. coli), P76194; test: cross-linking; conditions: remark: other sources report otherwise
T1 chain: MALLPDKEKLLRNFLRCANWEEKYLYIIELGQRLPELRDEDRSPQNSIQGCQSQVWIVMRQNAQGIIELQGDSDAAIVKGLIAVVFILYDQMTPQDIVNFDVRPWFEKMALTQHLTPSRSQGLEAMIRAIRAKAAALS

[1] = biological target: T2, SufS cysteine desulfurase (E. coli, UniProt P77444 1-406); test: inhibition of enzyme activity
T2 sequence (looked up): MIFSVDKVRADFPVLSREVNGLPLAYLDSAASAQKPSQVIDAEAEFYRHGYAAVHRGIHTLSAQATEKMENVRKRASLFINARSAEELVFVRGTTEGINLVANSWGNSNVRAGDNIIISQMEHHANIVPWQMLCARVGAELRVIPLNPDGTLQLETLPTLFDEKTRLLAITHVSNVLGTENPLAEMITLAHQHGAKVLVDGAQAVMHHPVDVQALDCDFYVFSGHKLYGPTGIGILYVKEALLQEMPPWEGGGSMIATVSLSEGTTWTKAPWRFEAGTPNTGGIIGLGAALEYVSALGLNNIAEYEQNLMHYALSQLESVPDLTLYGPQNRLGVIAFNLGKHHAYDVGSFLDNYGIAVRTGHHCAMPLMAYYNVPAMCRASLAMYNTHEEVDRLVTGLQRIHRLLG

Molecule: SufS (from UniProt P77444)
- Kd (SufE (Escherichia coli)): 360 nM

B1: SufE, P76194 1-138 (natural protein)
chain: MALLPDKEKLLRNFLRCANWEEKYLYIIELGQRLPELRDEDRSPQNSIQGCQSQVWIVMRQNAQGIIELQGDSDAAIVKGLIAVVFILYDQMTPQDIVNFDVRPWFEKMALTQHLTPSRSQGLEAMIRAIRAKAAALS
- percent of total protein as disulfide-bonded homodimer (with or without H2O2) (SufE (E. coli), P76194): 18%
- stoichiometry N (SufE (E. coli), P76194): 2

B2: SufE where C51 has been covalently blocked with iodoacetamide (natural protein, E. coli, UniProt P76194 1-138, looked up)
chain: MALLPDKEKLLRNFLRCANWEEKYLYIIELGQRLPELRDEDRSPQNSIQGCQSQVWIVMRQNAQGIIELQGDSDAAIVKGLIAVVFILYDQMTPQDIVNFDVRPWFEKMALTQHLTPSRSQGLEAMIRAIRAKAAALS
modifications: C51 covalently blocked with iodoacetamide
- Ki [1]: 190 nM
